Substitutions are numbered along the chain they refer to. Read-outs that look alike come from different tables or passages of the source. Blank lines part the entries; values can stand above or below the binder they belong to.
Key:
FAM19A5 mutant M6 [1] = target: T1, FAM19A5 mutant M6 (human); assay: ELISA on phage-displayed FAM19A5 mutants; y axis without label
T1 construct: FAM19A5 with region 6 replaced by the consensus of FAM19A1-4; The entry already carries the changes
T1 chain: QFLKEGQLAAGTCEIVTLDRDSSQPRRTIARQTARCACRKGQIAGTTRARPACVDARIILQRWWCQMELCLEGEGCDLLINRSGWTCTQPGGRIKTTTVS

FAM19A5 mutant M7 [2] = target: T2, FAM19A5 mutant M7 (human); assay: as above
T2 construct: FAM19A5 with region 7 replaced by the consensus of FAM19A1-4; The entry already carries the changes
T2 chain: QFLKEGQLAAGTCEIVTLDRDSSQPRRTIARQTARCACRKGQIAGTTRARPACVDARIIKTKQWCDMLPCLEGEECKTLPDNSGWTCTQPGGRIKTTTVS

FAM19A5 mutant M8 [3] = target: T3, FAM19A5 mutant M8 (human); assay: as above
T3 construct: FAM19A5 with region 8 replaced by the consensus of FAM19A1-4; The entry already carries the changes
T3 chain: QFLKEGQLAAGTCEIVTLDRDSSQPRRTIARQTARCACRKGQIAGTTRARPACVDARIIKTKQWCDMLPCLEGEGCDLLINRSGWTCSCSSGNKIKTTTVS

FAM19A5-M1 [4] = target: T4, FAM19A5-M1; assay: ELISA on phage-displayed FAM19A5 mutants; y axis without label; no blank in the panel, lowest bars about 0.05
T4 construct: also called FAM19A5 mutant M1
T4 FAM19A5 mutant: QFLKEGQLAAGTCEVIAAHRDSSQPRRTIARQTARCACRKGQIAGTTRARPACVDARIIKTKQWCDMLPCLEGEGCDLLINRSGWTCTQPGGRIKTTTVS

FAM19A5-M2 [5] = target: T5, FAM19A5-M2; assay: as above
T5 construct: also called FAM19A5 mutant M2
T5 FAM19A5 mutant: T4 FAM19A5 mutant with V15I, I16V, A17T, A18L, H19D, D21C, S22C, S23N, Q24K, P25N

FAM19A5-M3 [6] = target: T6, FAM19A5-M3; assay: as above
T6 construct: also called FAM19A5 mutant M3
T6 FAM19A5 mutant: T4 FAM19A5 mutant with V15I, I16V, A17T, A18L, H19D, R27I, T28E, I29E, A30R, R31S

FAM19A5-M4 [7] = target: T7, FAM19A5-M4; assay: as above
T7 construct: also called FAM19A5 mutant M4
T7 FAM19A5 mutant: T4 FAM19A5 mutant with V15I, I16V, A17T, A18L, H19D, A34V, R35K, A37S, R39F, K40P

FAM19A5-M5 [8] = target: T8, FAM19A5-M5; assay: as above
T8 construct: also called FAM19A5 mutant M5
T8 FAM19A5 mutant: T4 FAM19A5 mutant with V15I, I16V, A17T, A18L, H19D, A49N, R50K, A52S

FAM19A5 mutant M6 [9] = target: T1, FAM19A5 mutant M6; assay: ELISA on phage-displayed FAM19A5 mutants; y axis without label
FAM19A5 mutant M8 [10] = target: T3, FAM19A5 mutant M8; assay: as above
FAM19A5-M1 [11] = target: T4, FAM19A5-M1; assay: ELISA on phage-displayed FAM19A5 mutants; y axis without label; no blank in the panel
FAM19A5-M2 [12] = target: T5, FAM19A5-M2; assay: as above
FAM19A5-M3 [13] = target: T6, FAM19A5-M3; assay: as above
FAM19A5-M4 [14] = target: T7, FAM19A5-M4; assay: as above
FAM19A5-M5 [15] = target: T8, FAM19A5-M5; assay: as above
FAM19A5 mutant M7 [16] = target: T2, FAM19A5 mutant M7; assay: as above

- binding result (FAM19A5 mutant M6 [1]): no binding
- binding result (FAM19A5 mutant M7 [2]): no binding
- binding result (FAM19A5 mutant M8 [3]): no binding
- binding result (FAM19A5-M1 [4]): binds
- binding result (FAM19A5-M2 [5]): binds
- binding result (FAM19A5-M3 [6]): binds
- binding result (FAM19A5-M4 [7]): binds
- binding result (FAM19A5-M5 [8]): binds
B1: Anti-FAM19A5 (P2-A03) (antibody, V domains shown)
VH: QSVEESGGRLVTPGTPLTLTCTVSGFSLNNYDMSWVRQAPGKGLEYIGFMDTDGSAYYATWAKGRFTISRTSTTVDLKMTSPTTEDTATYFCARRGSSYYGGIDIWGPGTPVTVSL
VL: ELDLTQTPASVSEPVGGTVTIKCQASQSIGGNLAWYQQKPGQPPKLLIYRASTLASGVPSRFKGSGSGTDFTLTISDLECADAATYYCQSPAYDPAAYVGNAFGGGTELEIL
notes: Only variable domains are tied to the name

- binding result (FAM19A5 mutant M6 [9]): no binding
- binding result (FAM19A5 mutant M8 [10]): no binding
- binding result (FAM19A5-M1 [11]): binds
- binding result (FAM19A5-M2 [12]): binds
- binding result (FAM19A5-M3 [13]): binds
- binding result (FAM19A5-M4 [14]): binds
- binding result (FAM19A5-M5 [15]): binds
- binding result (FAM19A5 mutant M7 [16]): binds
B2: Anti-FAM19A5 (13B4) (antibody, V domains shown)
VH: QVQLQESGPGLVKPSGTLSLNCAVSGGSISSSNWWSWVRQPPGKGLEWIGEIYHGGTTNYNPSLKGRVTMSVDKTKNQFSLRLSSVTAVDTAVYYCARWQLVGGLDVWGQGTTVTVSS
VL: SYELTQPLSVSVSPGQTASITCSGDKLGNVYASWYQQKPGQSPTLVIYQDNKRPSGIPERFSGSNSGKTATLTISGTQALDEADYYCQAWDSSTAVFGGGTKLTVL
notes: as for B1

Reference: US20250236663A1 (NEURACLE SCIENCE, published 2025)
